# Experiments:
# MTX-cIBL conjugate = test system: T1, MTX-cIBL conjugate
# T1 sequence: QTSVSPSKVI
# [1] = test system: T2, MTX-cIBR conjugate (methotrexate-cyclo-Leu Pro Arg Gly Gly Ser Val Leu Val Thr)
# T2 sequence: LPRGGSVLVT
substance,measurement,setting,value
dihydrofolate reductase enzyme (DHFR),Km relative to MTX,MTX-cIBL conjugate,"approximately 4 and 15 fold times less than that of MTX, respectively"
same,Km relative to MTX,[1],"approximately 4 and 15 fold times less than that of MTX, respectively"

# Reference: US20040037775
